This is an account of results in paper PMC10501185.

In this assay the target is Lymphocytic choriomeningitis virus RING finger Z matrix protein (Lymphocytic choriomeningitis virus (LCMV)) (UniProt P18541). The assay is described as follows: cryo-EM structure.
UniProt P18541, sequence (P18541 whole entry): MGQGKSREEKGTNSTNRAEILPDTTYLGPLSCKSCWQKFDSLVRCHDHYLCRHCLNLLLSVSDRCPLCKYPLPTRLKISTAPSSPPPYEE

Turning to “Lymphocytic choriomeningitis virus large polymerase (L), P14240 1-2210”, the stoichiometry N – broadly, a count of units in the complex or per binding partner – was 1.
